Measurements reported in patent US20130236462A1 (Sanofi, published 2013).

Assays:
[1] = target: T1, recombinant human IL-4 (human, UniProt P05112 25-153); assay: SPR Biacore 3000, antibody captured, cytokine in solution
T1 construct: Bought reagent
T1 sequence (looked up): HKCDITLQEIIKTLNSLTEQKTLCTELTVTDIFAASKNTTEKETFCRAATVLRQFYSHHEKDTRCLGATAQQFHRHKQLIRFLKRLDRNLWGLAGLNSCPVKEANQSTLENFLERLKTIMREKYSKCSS
Description: (§1) Surface plasmon resonance technology on a Biacore 3000 (GE Healthcare) was used for detailed kinetic characterisation of purified anibodics. A capture assay using a species specific antibody (e.g. human-Fc specific MAB 1302, Chemicon) for capture and orientation of the investigated antibodies was used. The capture antibody was immobilized via primary amine groups (10000 RU) on a research grade CM5 chip (GE Life Sciences) using standard procedures. The analysed antibody was captured with an adjusted RU value that would result in maximal analyte binding of 30 RU at a flow rate of 10 μl/min. Binding kinetics were measured against recombinant human IL-4 and IL-13 over a concentration range between 0 to 50 nM in HBS EP (10 mM HEPES pH 7.4, 150 mM NaCl, 3 mM EDTA, 0.005% Surfactant P20) at a flow rate of 30 μl/min. Chip surfaces were regenerated with 10 mM glycine pH2.5. Kinetic parameters were analysed and calculated in the BIAevaluation program package using a flow cell without captured antibody as reference. To investigate additive binding of both antigens, a wizard-driven co-inject method has been applied in which one antigen was injected immediately followed by the antigen mix of IL-13/IL-4.

[2] = target: T1, recombinant human IL-4; assay: cell-based or functional assay
[3] = target: T1, recombinant human IL-4; assay: SPR Biacore 3000, ratio of KD
Description: as §1

[4] = target: T2, recombinant human IL-13 (human, UniProt P35225 35-146, limits assumed); assay: SPR Biacore 3000, antibody captured, cytokine in solution
T2 construct: Bought reagent; also called wild type IL-13
Description: as §1

[5] = target: T2, recombinant human IL-13; assay: cell-based or functional assay
[6] = target: T2, recombinant human IL-13; assay: SPR Biacore 3000, ratio of KD
Description: as §1

T2 sequence (P35225 35-146 limits assumed): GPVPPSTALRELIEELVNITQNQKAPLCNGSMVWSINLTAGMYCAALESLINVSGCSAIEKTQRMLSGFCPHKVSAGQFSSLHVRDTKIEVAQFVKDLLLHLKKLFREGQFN

Binder | Kd [1] | koff [1] | kon [1] | IC50, inhibition of IL-4 induced TF-1 cell proliferation [2] | fold higher affinity than chimeric 8D4-8 [3] | fold higher affinity than the original murine 8D4-8 [3] | Kd [4] | koff [4] | kon [4] | IC50, inhibition of IL-13 induced TF-1 cell proliferation [5] | fold higher affinity than chimeric B-B13 [6] | fold higher affinity than the original murine B-B13 [6]
Hu8D4-8 VL1 × VH1 (antibody, V domains shown, Expressed as a whole antibody, purified on Protein A; also called hu8D4-8 VL1xVH1; humanized 8D4-8 VL1xVH1) VH: QVQLQQSGPELVKPGASVKISCKASGYSFTSYWIHWIKQRPGQGLEWIGMIDPSDGETRLNQRFQGRATLTVDESTSTAYMQLRSPTSEDSAVYYCTRLKEYGNYDSFYFDVWGAGTLVTVSS VL: DIQMTQSPASLSVSVGDTITLTCHASQNIDVWLSWFQQKPGNIPKLLIYKASNLHTGVPSRFSGSGSGTGFTLTISSLQPEDIATYYCQQAHSYPFTFGGGTKLEIKR | 3.29 pM | 0.000155 s⁻¹ | 4.72e+07 M⁻¹ s⁻¹ | 41 pM | 2 fold | 11 fold |  |  |  |  |  | 
huB-B13 VL3 × VH2 (antibody, V domains shown, Expressed as a whole antibody, purified on Protein A; also called huB-B13 VL3xVH2; humanized B-B13 VL3xVH2) VH: EVQLKESGPGLVAPGGSLSITCTVSGFSLTDSSINWVRQPPGKGLEWLGMIWGDGRIDYADALKSRLSISKDSSKSQVFLEMTSLRTDDTATYYCARDGYFPYAMDFWGQGTSVTVSS VL: DIVLTQSPASLAVSLGQRATISCRASESVDSYGQSYMHWYQQKAGQPPKLLIYLASNLESGVPARFSGSGSRTDFTLTIDPVQAEDAATYYCQQNAEDSRTFGGGTKLEIK |  |  |  |  |  |  | 0.0439 nM | 0.000112 s⁻¹ | 2.55e+06 M⁻¹ s⁻¹ | 3.2 nM | 6 fold | 13 fold
